Data on three substances can be found in paper PMC7661517.

In the experiment the target is hen egg white lysozyme (chicken) (UniProt P00698). The experiment is described as follows: SPR; lysozyme immobilised on a CM5 chip by amine coupling (200 RU); Affitins injected at 15.6-500 nM; 25 °C; HBSEP pH 7.4 (10 mM Hepes, 150 mM NaCl, 2 mM EDTA, 0.05% P20); association 2 min, dissociation 7 min; apparent. On the technique in general: Surface plasmon resonance follows binding to a sensor surface in real time, without labels.
UniProt P00698, sequence (P00698 19-147): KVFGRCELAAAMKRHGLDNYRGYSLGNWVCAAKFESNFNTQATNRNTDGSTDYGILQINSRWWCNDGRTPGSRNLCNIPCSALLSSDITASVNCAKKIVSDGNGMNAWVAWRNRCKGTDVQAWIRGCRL
In the case of “Affitin H4 mutant M1 (F6W-F7I) (designed binder)”, the Kd worked out at 3.98 nM. Turning to “Affitin H4 mutant M3 (L54I-L55V-L58I) (designed binder)”, the Kd stood at 7.5 nM. For the substance “Affitin H4 mutant M2 (L31I-F32W) (designed binder)”, the Kd was found to be 440 nM.
